US10975123B2, “Mutant Akt-specific capture agents, compositions, and methods of using and making” (California Institute of Technology, priority 2014, dated 2021)
Primed or numbered codes have the meaning given here. Where no end group is shown, it is not given here. [ ]: non-standard residue; d: D form. PEG5′ = PEG5 linker

Columns and labels:
[1] = biological target: T1, HEK-293T cells expressing GFP-tagged E17K PH Domain (Homo sapiens, UniProt P31749, E17K); test: Cell imaging, cells expressing E17K protein; type: cell-based; conditions: confocal imaging, 50 nM, compared with WT cells, in words
T1 construct: transfected to express GFP-tagged E17K or GFP-tagged WT PH Domain proteins; expressed in transfected cells; host or cells: HEK-293T
T1 sequence (P31749 5-108 E17K limits assumed): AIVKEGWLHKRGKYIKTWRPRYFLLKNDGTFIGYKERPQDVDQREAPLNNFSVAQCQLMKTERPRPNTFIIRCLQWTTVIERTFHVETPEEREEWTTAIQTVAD
Excerpt: The yleaf ligand was then labeled with both a Tat cell-penetrating peptide^22 and a Cy5 dye (FIG. 2a). The combination of the GFP label on the protein and the Cy5 label on the dye permitted the use of multi-color fluorescence microscopy for interrogating any spatial registry between the two fluorescent labels, as well as tracking the efficiency of the protein expression in the cells. Live HEK-293T cells expressing these GFP-tagged proteins were exposed to varying concentrations of the modified yleaf anchor ligand 6 for one hour. The cells were then incubated in fresh media for one hour before being thoroughly washed in PBS to remove weakly and nonspecifically bound PCC and fixed for fluorescence microscopy measurements.
However, the level of the PCC agent retained by the cells was substantially different (FIG. 4). […] Pearson's correlation coefficient was used to quantify the co-localization of the two different dyes^23 by calculating over four representative images for each of the WT or E17K mutant cells and averaging the results. […] The Cy5 fluorescence intensity on a per cell basis has also been calculated for the cells expressing the WT and E17K proteins, and this difference is again statistically significant (p=0.00018). […]

[2] = biological target: full length Akt1E17K (Homo sapiens, UniProt P31749, E17K); test: Fluorescence polarization binding to full-length E17K Akt1; conditions: triligand 9, triplicate, in words
Sequence of full length Akt1E17K (P31749 whole entry E17K): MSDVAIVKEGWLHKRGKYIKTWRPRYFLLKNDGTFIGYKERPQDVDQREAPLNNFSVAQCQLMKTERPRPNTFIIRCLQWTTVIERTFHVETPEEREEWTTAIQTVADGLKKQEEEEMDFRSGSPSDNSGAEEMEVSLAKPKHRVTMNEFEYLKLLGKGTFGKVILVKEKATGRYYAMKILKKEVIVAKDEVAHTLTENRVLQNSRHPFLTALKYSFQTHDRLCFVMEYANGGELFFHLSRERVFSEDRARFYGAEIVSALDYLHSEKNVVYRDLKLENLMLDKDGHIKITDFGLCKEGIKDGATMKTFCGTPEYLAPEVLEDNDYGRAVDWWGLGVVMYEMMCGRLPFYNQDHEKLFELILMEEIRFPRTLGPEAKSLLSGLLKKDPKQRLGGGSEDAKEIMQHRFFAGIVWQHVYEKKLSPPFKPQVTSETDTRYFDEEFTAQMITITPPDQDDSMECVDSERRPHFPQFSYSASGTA
Protocol: FIG. 2: Anchor ligand structure and characterization. (FIG. 2A) The peptide anchor ligand, yleaf (SEQ ID NO: 43), which was discovered using the epitope-targeting technique. The different sets of R groups indicate the modifications that were made to perform the various experiments described. (FIG. 2B) Point ELISA for specificity obtained by immobilizing biotinylated yleaf (SEQ ID NO: 43) anchor ligand 2 onto a Neutravidin plate, then incubating with a 6 His-tagged epitope (“6 His” disclosed as SEQ ID NO: 4) 3. […] (FIG. 2C) Binding curves of yleaf (SEQ ID NO: 43) anchor ligand 4 to the full-length WT or E17K mutant Akt1 proteins obtained in solution by fluorescence polarization. A saturation point for the WT ligand was not reached due to the prohibitively high protein concentration required. (FIG. 2D) Full binding curves of yleaf (SEQ ID NO: 43) anchor ligand 4 to the WT or E17K mutant epitopes. […] All assays were performed in triplicate and averaged. Error bars indicate standard deviation.
FIG. 5: The PCC agent triligand development strategy, structure, and inhibition data. (FIG. 5A) The yleaf (SEQ ID NO: 43) anchor ligand with a C-terminal alkyne 2 was screened against an azide-terminated library in the presence of the full-length PH Domain to identify a biligand. The biligand 7 was then appended with an N-terminal azide and screened against an alkyne library to identify a triligand. […]

| Substance | retention of Cy5-labeled ligand in cells expressing E17K PH Domain (Cy5 signal) [1] | selectivity for E17K over WT full-length protein by fluorescence polarization [2] |
| --- | --- | --- |
| PEG5-TAT-Cy5: control construct with no anchor ligand peptide, used in cell imaging ([PEG5′]YGRKKRRQRR; not fully specified (C-terminus); numbers in words are those of the source; also: Cy5 dye attached, site not given here) | looks the same as the WT PH Domain images | – |
| triligand 9: form of the ivdae-yleaf-yksy triligand used in fluorescence polarization assays (peptide 1 [dI][dV][dD][dA][dE]; peptide 2 [dY][dL][dE][dA][dF]; peptide 3 [dY][dK][dS][dY]; also: three chains joined by triazole click linkages (Lys(N3) and Pra handles), places not settled) | – | E17K mutant selectivity is retained |
